The results in this text go back to US20070196883A1 (UNIVERSITY OF DUNDEE, published 2007).

Test [1] addresses T1, His-PDK1 (Myc-PDK1 with an N-terminal hexahistidine sequence, from Sf21 insect cells) (human, UniProt O15530 1-556).
T1 construct: Purified by Ni-NTA agarose, >90% homogeneous; also called His-tagged PDK1
T1 sequence: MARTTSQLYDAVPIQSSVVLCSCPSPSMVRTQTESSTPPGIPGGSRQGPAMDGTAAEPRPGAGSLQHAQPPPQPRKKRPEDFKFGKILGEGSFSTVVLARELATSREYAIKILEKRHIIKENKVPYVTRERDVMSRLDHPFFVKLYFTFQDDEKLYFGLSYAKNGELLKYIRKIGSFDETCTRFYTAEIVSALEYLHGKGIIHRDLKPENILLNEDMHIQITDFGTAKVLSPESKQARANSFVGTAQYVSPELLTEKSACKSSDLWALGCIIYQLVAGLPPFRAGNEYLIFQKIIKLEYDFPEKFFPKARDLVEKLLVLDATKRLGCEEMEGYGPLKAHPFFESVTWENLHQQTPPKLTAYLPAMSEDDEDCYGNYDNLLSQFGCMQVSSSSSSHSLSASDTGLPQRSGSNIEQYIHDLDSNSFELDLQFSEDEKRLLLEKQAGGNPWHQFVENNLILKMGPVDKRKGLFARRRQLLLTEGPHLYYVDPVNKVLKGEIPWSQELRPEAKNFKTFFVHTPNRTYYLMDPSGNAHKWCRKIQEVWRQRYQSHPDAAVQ
As to the kind of experiment: SPR, His-PDK1 over the biotinylated peptide on Sensor Chip SA, steady state.

In test [2] the target is T2, GST-MSK1 (UniProt O75582 1-802).
T2 construct: not shown: glutathione S-transferase (GST) tag
As to the kind of experiment: GST pull-down from 293 cells, PDK1 immunoblot and activity. For orientation: Immunoblotting shows a protein as a band on a membrane.

Test [3] has as its target T1, His-PDK1 (Myc-PDK1 with an N-terminal …). As to the kind of experiment: SPR competition: 0.5 µM His-PDK1 mixed with 0-3 µM free Region B peptide, injected over the immobilised peptide.
Test [4] shares this target. As to the kind of experiment: SPR competition with the immobilised Region B peptide.

Ends that are not written are not given here. * marks the point of attachment. Biotin = O=C1N[C@H]2[C@H](CS[C@H]2CCCCC(=O)*)N1

T2 sequence (O75582 whole entry): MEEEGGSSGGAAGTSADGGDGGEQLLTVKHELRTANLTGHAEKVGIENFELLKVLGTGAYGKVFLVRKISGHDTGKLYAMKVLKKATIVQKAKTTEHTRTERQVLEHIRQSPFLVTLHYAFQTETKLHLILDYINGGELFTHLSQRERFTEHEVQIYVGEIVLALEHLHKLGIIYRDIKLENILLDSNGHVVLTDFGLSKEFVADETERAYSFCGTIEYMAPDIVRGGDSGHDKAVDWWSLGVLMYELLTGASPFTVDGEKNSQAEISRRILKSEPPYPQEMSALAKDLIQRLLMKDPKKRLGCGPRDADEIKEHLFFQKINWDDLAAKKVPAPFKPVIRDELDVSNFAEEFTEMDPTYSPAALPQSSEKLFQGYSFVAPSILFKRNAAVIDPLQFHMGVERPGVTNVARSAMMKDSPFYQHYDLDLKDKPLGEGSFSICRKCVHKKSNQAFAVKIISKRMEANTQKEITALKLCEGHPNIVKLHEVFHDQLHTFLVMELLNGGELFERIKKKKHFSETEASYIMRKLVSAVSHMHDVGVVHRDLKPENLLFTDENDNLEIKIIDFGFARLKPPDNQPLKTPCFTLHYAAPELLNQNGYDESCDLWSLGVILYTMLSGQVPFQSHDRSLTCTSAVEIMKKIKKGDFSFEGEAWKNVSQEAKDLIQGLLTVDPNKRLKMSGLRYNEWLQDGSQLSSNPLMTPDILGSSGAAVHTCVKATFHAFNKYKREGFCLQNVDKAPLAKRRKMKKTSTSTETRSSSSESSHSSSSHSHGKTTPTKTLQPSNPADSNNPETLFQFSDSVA

B1: immobilised and biotinylated 24 residue synthetic peptide corresponding to the Region B peptide (peptide)
peptide: REPRILSEEEQEMFRDFDYIADWC(Biotin)
notes: also called Region B peptide, biotinylated
On to B1, for which binding in test [1] was characterised by a dissociation constant (Kd) of 800 nM.

B2: endogenous PDK1 of 293 cells (enzyme, UniProt O15530 1-556, looked up)
chain: T1 sequence
notes: Two bands (63 and 66 kDa) both co-purified with GST-PIF; also called PDK1 immunoreactive bands at 63 kDa and 66 kDa
As for B2, the binding result in test [2] is reported as “no binding”.

B3: Region B peptide (24 residue synthetic peptide corresponding to Region B of PIF) (peptide)
peptide: REPRILSEEEQEMFRDFDYIADWC
notes: also called free peptide; wild type peptide
With B3, the Kd (usually the constant that tells how readily two partners part at equilibrium) in test [3] turned out to be 1500 nM.

B4: D978A-Region B peptide (peptide)
peptide: REPRILSEEEQEMFRDFAYIADWC
notes: Range 961-984 is worked out from 'C-terminal 24 amino acids'
Take B4: in test [4], the “fold less strongly than the Region B peptide” value amounted to 10 fold.
